Source: patent US20120328625A1

Assays:
[1] = target: Shh-N in conditioned medium (human) (UniProt Q15465); assay: cell-based or functional assay
[2] = target: full length human Shh expressed on the cell surface (human) (UniProt Q15465); assay: cell-based or functional assay

% Inhibition of Gli1 reporter, Conditioned Media N = 1, 4 µg/ml [1]: 103%
% Inhibition of Gli1 reporter, Conditioned Media N = 2, 4 µg/ml [1]: 112%
% Inhibition of Gli1 reporter, Co-Culture N = 1, 4 µg/ml [2]: 124%
% Inhibition of Gli1 reporter, Co-Culture N = 2, 4 µg/ml [2]: 96%
% Inhibition of Gli1 reporter, Co-Culture N = 3, 4 µg/ml [2]: 121%
B1: rmHIP (protein, UniProt Q7TN16 18-678, looked up)
chain: FFEGDAKFGERNEGSGARRRRCLNGNPPKRLKRRDRRVMSQLELLSGGEILCGGFYPRVSCCLQSDSPGLGRLENKIFSATNNSECSRLLEEIQCAPCSPHSQSLFYTPERDVLDGDLALPLLCKDYCKEFFYTCRGHIPGLLQTTADEFCFYYARKDAGLCFPDFPRKQVRGPASNYLGQMEDYEKVGGISRKHKHNCLCVQEVMSGLRQPVSAVHSGDGSHRLFILEKEGYVKILTPEGELFKEPYLDIHKLVQSGIKGGDERGLLSLAFHPNYKKNGKLYVSYTTNQERWAIGPHDHILRVVEYTVSRKNPHQVDVRTARVFLEVAELHRKHLGGQLLFGPDGFLYIILGDGMITLDDMEEMDGLSDFTGSVLRLDVDTDMCNVPYSIPRSNPHFNSTNQPPEVFAHGLHDPGRCAVDRHPTDININLTILCSDSNGKNRSSARILQIIKGRDYESEPSLLEFKPFSNGPLVGGFVYRGCQSERLYGSYVFGDRNGNFLTLQQSPVTKQWQEKPLCLGASSSCRGYFSGHILGFGEDELGEVYILSSSKSMTQTHNGKLYKIVDPKRPLMPEECRVTVQPAQPLTSDCSRLCRNGYYTPTGKCCCSPGWEGDFCRIAKCEPACRHGGVCVRPNKCLCKKGYLGPQCEQVDRNVRRVTR
